This experiment concerns the target MBP (UniProt P0AEX9 27-392 = MBP). Nature of the experiment: hIAPP peptide array incubated with MBP alone, immunoblot. The method, then: The cellulose membrane was then washed repeatedly with 0.05% Tween 20 in TBS. […] HRP-conjugated goat anti mouse antibodies (Jackson Laboratories, USA) were used as a secondary antibody. Immunoblots were developed using the Renaissance western blot Chemiluminescence Reagent (NEN, USA) according to Manufacturer's instructions and signal was quantified using densitometry. Regeneration of the cellulose membrane for reuse was carried out by sequential washing with Regeneration buffer I including 62.5 mM Tris, 2% SDS, 100 Mm 2-mercaptoethanol, pH 6.7, and Regeneration buffer II including 8 M urea, 1% SDS, 0.1% 2-mercaptoethanol. Efficiency of the washing steps was monitored by contacting the membrane with the chemiluminescence reagent, as described.
On the technique in general: Immunoblotting shows a protein as a band on a membrane.

Ends that are not written are not given here. cellulose membrane = cellulose membrane support bound via the C-terminal amino acid

B1: hIAPP3-12 (peptide)
peptide: Ac-NTATCATQRL
modifications: also: C-terminal residue bound to cellulose membrane
notes: 61-88; also called decamer of the hIAPP peptide array
B1: the binding result is recorded as “no binding”.

B2: hIAPP6-15 (peptide)
peptide: Ac-TCATQRLANF-{cellulose membrane}
notes: as for B1
With B2, the binding result is given as “no binding”.

B3: hIAPP16-25 (peptide)
peptide: Ac-LVHSSNNFGA-{cellulose membrane}
notes: as for B1
For the molecule B3, the binding result was “no binding”.

B4: hIAPP24-33 (peptide)
peptide: Ac-GAILSSTNVG-{cellulose membrane}
notes: as for B1
As for B4, the binding result is listed as “no binding”.

B5: hIAPP13-22 (peptide)
peptide: Ac-ANFLVHSSNN-{cellulose membrane}
notes: as for B1
In the case of B5, the binding result is “no binding”.

B6: hIAPP11-20 (peptide)
peptide: Ac-RLANFLVHSS
modifications: also: C-terminal residue bound to cellulose membrane
notes: as for B1
As for B6, the binding result is “no binding”.

B7: hIAPP21-30 (peptide)
peptide: Ac-NNFGAILSST
modifications: also: C-terminal residue bound to cellulose membrane
notes: as for B1
Turning to B7, the binding result was “no binding”.

B8: hIAPP1-10 (peptide)
peptide: Ac-KCNTATCATQ
modifications: cysteine pairing not given here; also: C-terminal residue bound to cellulose membrane
notes: 61-88 (hIAPP1-10 ... hIAPP28-37); also called decamer of the hIAPP peptide array
Take B8: the binding result is listed as “no binding”.

B9: hIAPP9-18 (peptide)
peptide: Ac-TQRLANFLVH
modifications: also: C-terminal residue bound to cellulose membrane
notes: as for B1
With B9, the binding result was “no binding”.

B10: hIAPP25-34 (peptide)
peptide: Ac-AILSSTNVGS-{cellulose membrane}
notes: as for B1
For the molecule B10, the binding result is “no binding”.

B11: hIAPP10-19 (peptide)
peptide: Ac-QRLANFLVHS
modifications: also: C-terminal residue bound to cellulose membrane
notes: as for B1
On to B11, for which the binding result is “no binding”.

B12: hIAPP28-37 (peptide)
peptide: Ac-SSTNVGSNTY-{cellulose membrane}
notes: as for B1
As to B12, the binding result is recorded as “no binding”.

B13: hIAPP2-11 (peptide)
peptide: Ac-CNTATCATQR
modifications: cysteine pairing not given here; also: C-terminal residue bound to cellulose membrane
notes: as for B1
Turning to B13, the binding result is listed as “no binding”.

B14: hIAPP5-14 (peptide)
peptide: Ac-ATCATQRLAN-{cellulose membrane}
notes: as for B1
For the molecule B14, the binding result is listed as “no binding”.

B15: hIAPP14-23 (peptide)
peptide: Ac-NFLVHSSNNF-{cellulose membrane}
notes: as for B1
Take B15: the binding result is “no binding”.

B16: hIAPP18-27 (peptide)
peptide: Ac-HSSNNFGAIL-{cellulose membrane}
notes: as for B1
As for B16, the binding result is recorded as “no binding”.

B17: hIAPP17-26 (peptide)
peptide: Ac-VHSSNNFGAI-{cellulose membrane}
notes: as for B1
For B17, the binding result is “no binding”.

B18: hIAPP8-17 (peptide)
peptide: Ac-ATQRLANFLV
modifications: also: C-terminal residue bound to cellulose membrane
notes: as for B1
As to B18, the binding result is “no binding”.

B19: hIAPP27-36 (peptide)
peptide: Ac-LSSTNVGSNT-{cellulose membrane}
notes: as for B1
As to B19, the binding result is recorded as “no binding”.

B20: hIAPP15-24 (peptide)
peptide: Ac-FLVHSSNNFG-{cellulose membrane}
notes: as for B1
As for B20, the binding result is “no binding”.

B21: hIAPP23-32 (peptide)
peptide: Ac-FGAILSSTNV-{cellulose membrane}
notes: as for B1
Consider B21, for which the binding result is “no binding”.

B22: hIAPP4-13 (peptide)
peptide: Ac-TATCATQRLA-{cellulose membrane}
notes: as for B1
As to B22, the binding result is “no binding”.

B23: hIAPP26-35 (peptide)
peptide: Ac-ILSSTNVGSN-{cellulose membrane}
notes: as for B1
For the molecule B23, the binding result was “no binding”.

B24: hIAPP7-16 (peptide)
peptide: Ac-CATQRLANFL
modifications: also: C-terminal residue bound to cellulose membrane
notes: as for B1
For B24, the binding result is “no binding”.

B25: hIAPP19-28 (peptide)
peptide: Ac-SSNNFGAILS
modifications: also: C-terminal residue bound to cellulose membrane
notes: as for B1
B25: the binding result is on record as “no binding”.

B26: hIAPP12-21 (peptide)
peptide: Ac-LANFLVHSSN
modifications: also: C-terminal residue bound to cellulose membrane
notes: as for B1
B26: the binding result is “no binding”.

B27: hIAPP22-31 (peptide)
peptide: Ac-NFGAILSSTN-{cellulose membrane}
notes: as for B1
For the molecule B27, the binding result is given as “no binding”.

The values are drawn from US20100022459A1 (TEL AVIV UNIVERSITY FUTURE TECHNOLOGY DEVELOPMENT L P, published 2010).
